# Laboratory results published in US20210009671A1.
# Biological target: Recombinant human TNFα (R&D Systems) (human) (UniProt P01375)
# Sequence (P01375 77-233 limits assumed): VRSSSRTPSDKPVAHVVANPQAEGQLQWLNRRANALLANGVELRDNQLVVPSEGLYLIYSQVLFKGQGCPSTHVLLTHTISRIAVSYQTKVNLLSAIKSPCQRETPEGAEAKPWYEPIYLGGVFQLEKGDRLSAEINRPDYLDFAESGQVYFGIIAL
substance,measurement,value
etanercept (Fc fusion),"IC50, TNFα-induced Caspase 3 activity in U937 cells",0.144 nM
